To fix the notation:
B1: Escherichia coli FtsZ (natural protein, E. coli, UniProt P0A9A6 1-383, looked up)
chain: MFEPMELTNDAVIKVIGVGGGGGNAVEHMVRERIEGVEFFAVNTDAQALRKTAVGQTIQIGSGITKGLGAGANPEVGRNAADEDRDALRAALEGADMVFIAAGMGGGTGTGAAPVVAEVAKDLGILTVAVVTKPFNFEGKKRMAFAEQGITELSKHVDSLITIPNDKLLKVLGRGISLLDAFGAANDVLKGAVQGIAELITRPGLMNVDFADVRTVMSEMGYAMMGSGVASGEDRAEEAAEMAISSPLLEDIDLSGARGVLVNITAGFDLRLDEFETVGNTIRAFASDNATVVIGTSLDPDMNDELRVTVVATGIGMDKRPEITLVTNKQVQQPVMDRYQQHGMAPLTQEQKPVAKVVNDNAPQTAKEPDYLDIPAFLRKQAD
notes: FtsZ, tubulin homologue, Escherichia coli, wild type; Assembled with GTP in the assay; also called WT FtsZ; source: E. coli BL21(DE3), from a pET11 plasmid, purified (ammonium sulfate precipitation)
B2: FtsZ* (FtsZ L169R) (natural protein, E. coli, UniProt P0A9A6 1-383, looked up)
chain: B1 chain with L169R
notes: FtsZ, Escherichia coli, gain-of-function mutant L169R (FtsZ*); Assembled with GTP in the assay; source: E. coli BL21(DE3), from a pET11 plasmid, purified (ammonium sulfate precipitation)
B3: Escherichia coli FtsA (natural protein, E. coli, UniProt P0ABH0 1-420, looked up)
chain: MIKATDRKLVVGLEIGTAKVAALVGEVLPDGMVNIIGVGSCPSRGMDKGGVNDLESVVKCVQRAIDQAELMADCQISSVYLALSGKHISCQNEIGMVPISEEEVTQEDVENVVHTAKSVRVRDEHRVLHVIPQEYAIDYQEGIKNPVGLSGVRMQAKVHLITCHNDMAKNIVKAVERCGLKVDQLIFAGLASSYSVLTEDERELGVCVVDIGGGTMDIAVYTGGALRHTKVIPYAGNVVTSDIAYAFGTPPSDAEAIKVRHGCALGSIVGKDESVEVPSVGGRPPRSLQRQTLAEVIEPRYTELLNLVNEEILQLQEKLRQQGVKHHLAAGIVLTGGAAQIEGLAACAQRVFHTQVRIGAPLNITGLTDYAQEPYYSTAVGLLHYGKESHLNGEAEVEKRVTASVGSWIKRLNSWLRKEF
notes: FtsA, actin homologue of the divisome, Escherichia coli, wild type; ATP is thought to be present in the preparation; 0.05 mM ADP was added for storage; also called WT FtsA; His6-tagged FtsA

Data set [1] deals with the molecule itself. Put plainly: negative stain transmission electron microscopy on lipid monolayers; E. coli polar lipid monolayer under an EM grid, on storage buffer lacking EDTA (50 mM Tris pH 7.5, 250 mM KCl, 10 mM MgCl2, 10% glycerol). Added in turn: 0.1-1 uM FtsA (40 min), 4 mM ATP (20 min), 5 uM FtsZ (5 min), 4 mM GTP (20 min). Stained with 1% uranyl acetate.
The target of the data set “Escherichia coli FtsA” is B3. The data set is described as above. To be noted: both partners purified.
Data set [2] concerns the molecule itself. The experiment in a line: negative stain electron tomography with subtomogram averaging; FtsA minirings with FtsZ protofilaments on lipid monolayers; 300 kV, single-axis tilt series -60 to +60 degrees; 23 tomograms; 18,400 ring-like structures averaged and classified.

Substitutions are numbered along the chain they refer to. In names and notes the source's numbering stands.

The stoichiometry N is a count of units in the complex or per binding partner.

Consider B1, for which the binding result (in data set [1]; with Escherichia coli FtsA) was “binds” each time.

Consider B2, for which the binding result (in data set [1]; in the data set with Escherichia coli FtsA) was “binds” throughout.

On to B3, for which the “stoichiometry N” value in data set [2] came out at 12 subunits.

Source of the values: publication PMC5508204, “Escherichia coli FtsA forms lipid-bound minirings that antagonize lateral interactions between FtsZ protofilaments” (Nature Communications, 2017).
